Biological target: carcinoembryonic antigen (CEA) (UniProt P06731)
Experiment: size-exclusion HPLC shift of radioiodinated bispecific conjugate in the presence of excess CEA

Chain of UniProt P06731 (P06731 35-685 limits assumed): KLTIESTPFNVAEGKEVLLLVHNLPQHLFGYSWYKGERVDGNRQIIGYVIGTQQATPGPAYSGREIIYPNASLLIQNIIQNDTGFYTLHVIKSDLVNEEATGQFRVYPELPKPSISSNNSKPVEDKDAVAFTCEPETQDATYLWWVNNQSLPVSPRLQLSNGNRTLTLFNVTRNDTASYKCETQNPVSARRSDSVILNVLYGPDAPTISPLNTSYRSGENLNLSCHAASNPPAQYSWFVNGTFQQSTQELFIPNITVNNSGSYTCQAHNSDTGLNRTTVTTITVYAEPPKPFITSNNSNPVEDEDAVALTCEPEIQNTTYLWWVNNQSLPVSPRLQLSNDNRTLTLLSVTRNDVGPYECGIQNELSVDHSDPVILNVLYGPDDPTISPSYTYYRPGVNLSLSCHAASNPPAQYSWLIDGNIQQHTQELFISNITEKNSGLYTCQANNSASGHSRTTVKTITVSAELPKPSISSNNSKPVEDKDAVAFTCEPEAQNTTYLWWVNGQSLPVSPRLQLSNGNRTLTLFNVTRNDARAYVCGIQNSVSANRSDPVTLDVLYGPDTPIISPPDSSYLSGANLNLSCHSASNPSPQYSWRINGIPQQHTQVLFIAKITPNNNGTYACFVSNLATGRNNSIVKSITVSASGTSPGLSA

## hMN-14×734 bispecific antibody (Fab' of humanized anti-CEA hMN-14 coupled to Fab' of murine anti-indium-DTPA 734)
  immunoreactivity (fraction of radioiodinated sample shifted by excess CEA): > 85%

Source: patent US7534431
